This is an account of results in PMC7036143 (Molecular cell, 2020).

First the molecules themselves.
B2: E. coli MS115-1 Trip13 E159Q (purified) (enzyme)
chain: MNVKPSLDELFERRINFPDFEPQERLARLVGLDEHKDRLSKILGLLVNPYGIQEWAKKYHPDARAAVDTVLRRPPLVVLAGDVGSGKTELAETIGDAVARQEDIDITLYPLSLATRGQGRVGEMTQLVSAAFDYTIEAADKLKNTNGKARGAVLLLIDQADALAQSRENAQMHHEDRAGVNAFIRGIDRIANQKLPAAVLMCTNRLKALDPAVQRRAAEILTFSRPNDEQRHYLLHSKLTGLGLNSTAVEELVRLTGPRDPNSPGFTFSDITQRLIPSIILAAYPYNAVSVHSALQVVNKMTPTPAFIDRQ
B5: P. aeruginosa ATCC27853 HORMA2 (purified in complexes) (natural protein)
chain: MSTVATYSYTHSVTYVTDNILKSLKDIILLSGLDPEHFADRWESNTRAIKTWLGTGDLRKVILEIYNPATDKLVTRWDIDIVYGWSDGDGSFWTDTEQLKYAIKKAGLLPSQAKYKLMLDTKPGRPDVEGWSKGSYRSTDGMVKQSLGSTVEHSGLAGQAGYWRQR

The target of data set [1] is T1, Ec CdnC:HORMA-ΔN (crystal) (Escherichia coli, UniProt D7Y2H2).
T1 sequence (D7Y2H2 1-321): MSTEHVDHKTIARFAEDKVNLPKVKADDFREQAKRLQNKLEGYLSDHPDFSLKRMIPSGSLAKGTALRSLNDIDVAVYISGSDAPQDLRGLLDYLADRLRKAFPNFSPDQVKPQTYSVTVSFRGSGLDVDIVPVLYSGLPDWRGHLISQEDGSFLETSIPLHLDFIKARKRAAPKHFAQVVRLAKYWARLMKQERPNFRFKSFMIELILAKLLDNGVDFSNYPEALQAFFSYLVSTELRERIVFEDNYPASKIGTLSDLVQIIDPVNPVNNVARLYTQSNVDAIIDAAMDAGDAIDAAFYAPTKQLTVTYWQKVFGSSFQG
T1 sequence (D7Y2H3 12-172 partner): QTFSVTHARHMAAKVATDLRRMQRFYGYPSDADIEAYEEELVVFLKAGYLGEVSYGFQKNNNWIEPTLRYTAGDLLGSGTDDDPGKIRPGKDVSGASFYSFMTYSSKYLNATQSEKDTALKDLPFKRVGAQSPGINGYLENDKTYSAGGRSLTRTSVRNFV
Kind of data set: crystal structure. Type of data set: binding. Conditions: active site; copies contain either no ligand or AMP; co-purified.

The target in data set [2] is E. coli MS115-1 CdnC (purified, in complexes with HORMA) (E. coli MS115-1) (UniProt D7Y2H2). Kind of data set: SEC. A general note: Size exclusion chromatography separates by hydrodynamic size, large species first.
Data set [3] has the same target. Kind of data set: SEC. This is another data set of the same source.
Data set [4] has the same target. Kind of data set: crystal structure.
For a further data set, the target named is T2, Ec CdnC (Escherichia coli, UniProt D7Y2H2).
T2 sequence (D7Y2H2 1-321): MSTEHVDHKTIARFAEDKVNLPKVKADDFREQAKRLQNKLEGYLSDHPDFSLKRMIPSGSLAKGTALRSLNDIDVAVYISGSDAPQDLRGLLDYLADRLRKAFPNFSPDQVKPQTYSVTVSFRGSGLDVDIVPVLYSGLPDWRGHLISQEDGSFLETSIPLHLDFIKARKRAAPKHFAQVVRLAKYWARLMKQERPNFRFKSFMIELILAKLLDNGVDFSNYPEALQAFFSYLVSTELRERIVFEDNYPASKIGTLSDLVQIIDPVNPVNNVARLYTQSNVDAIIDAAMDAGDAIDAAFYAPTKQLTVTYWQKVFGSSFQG
Kind of data set: crystal structure, […] Å. Conditions: Mg2+; active site; ATP co-purified from E. coli. The format is binding.

Another data set concerns the target T3, Ec CdnC:HORMA:Trip13^EQ (Escherichia coli, UniProt D7Y2H4, E159Q).
T3 sequence (D7Y2H4 1-311 E159Q): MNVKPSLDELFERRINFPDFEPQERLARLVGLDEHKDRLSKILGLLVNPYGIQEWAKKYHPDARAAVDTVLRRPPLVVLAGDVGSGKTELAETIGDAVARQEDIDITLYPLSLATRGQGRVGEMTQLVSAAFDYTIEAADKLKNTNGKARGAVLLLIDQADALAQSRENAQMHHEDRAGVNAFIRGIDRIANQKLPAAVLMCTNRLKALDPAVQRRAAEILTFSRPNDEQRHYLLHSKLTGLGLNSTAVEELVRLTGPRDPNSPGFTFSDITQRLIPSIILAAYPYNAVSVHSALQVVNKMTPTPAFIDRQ
T3 sequence (D7Y2H2 1-321 partner): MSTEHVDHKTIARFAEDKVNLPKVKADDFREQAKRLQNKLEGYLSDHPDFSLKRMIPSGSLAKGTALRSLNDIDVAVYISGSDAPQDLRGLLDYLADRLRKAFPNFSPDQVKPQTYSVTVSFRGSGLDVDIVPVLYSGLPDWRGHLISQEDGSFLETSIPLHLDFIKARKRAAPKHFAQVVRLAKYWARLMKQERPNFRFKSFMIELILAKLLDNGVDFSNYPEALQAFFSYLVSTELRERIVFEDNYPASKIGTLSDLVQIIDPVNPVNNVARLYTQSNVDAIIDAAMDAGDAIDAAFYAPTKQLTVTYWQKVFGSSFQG
T3 sequence (D7Y2H3 1-172 partner): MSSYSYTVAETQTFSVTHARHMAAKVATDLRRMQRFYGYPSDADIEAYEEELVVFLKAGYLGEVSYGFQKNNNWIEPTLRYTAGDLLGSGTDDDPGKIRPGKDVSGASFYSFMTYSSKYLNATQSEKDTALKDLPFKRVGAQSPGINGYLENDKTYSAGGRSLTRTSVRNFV
Kind of data set: crystal structure, […] Å. The format is binding. Conditions: four of six Trip13 subunits (A-D); 1 mM ATP, 5 mM MgCl2.

In data set [5] the target is Rhizobiales sp. Trip13 (Rhizobiales sp.). Kind of data set: crystal structure.
In data set [6] the target is B5. Kind of data set: SEC-MALS.
Data set [7] deals with T4, P. aeruginosa ATCC27853 CdnD (purified) (P. aeruginosa ATCC27853, UniProt P0DTF7 1-300).
T4 sequence: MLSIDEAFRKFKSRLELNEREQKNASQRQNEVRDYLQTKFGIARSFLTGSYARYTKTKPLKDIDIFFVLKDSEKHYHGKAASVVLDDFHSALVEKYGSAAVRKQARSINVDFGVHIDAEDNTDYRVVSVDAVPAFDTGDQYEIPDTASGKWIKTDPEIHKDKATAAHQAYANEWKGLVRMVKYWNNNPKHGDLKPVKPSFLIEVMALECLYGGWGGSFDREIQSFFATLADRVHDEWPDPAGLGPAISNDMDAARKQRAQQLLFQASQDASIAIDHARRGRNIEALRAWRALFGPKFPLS
Kind of data set: SEC-MALS.

Data set [8] concerns the target B5. Kind of data set: crystal structure.
For data set [9], the target named is T5, Ec HORMA:CdnC complex (co-expressed, purified, 1:1) (E. coli MS115-1, UniProt D7Y2H2 1-321; D7Y2H3 1-172).
T5 sequence (looked up) 1: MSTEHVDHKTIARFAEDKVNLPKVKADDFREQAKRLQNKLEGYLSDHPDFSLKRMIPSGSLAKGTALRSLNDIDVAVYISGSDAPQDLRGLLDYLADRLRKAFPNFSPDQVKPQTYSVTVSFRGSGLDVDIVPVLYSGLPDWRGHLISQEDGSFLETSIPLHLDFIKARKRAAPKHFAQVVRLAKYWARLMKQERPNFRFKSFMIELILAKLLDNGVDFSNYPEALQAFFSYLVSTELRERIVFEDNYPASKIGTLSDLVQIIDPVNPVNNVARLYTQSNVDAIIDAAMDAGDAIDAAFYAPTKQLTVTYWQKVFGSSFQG
T5 sequence (looked up) 2: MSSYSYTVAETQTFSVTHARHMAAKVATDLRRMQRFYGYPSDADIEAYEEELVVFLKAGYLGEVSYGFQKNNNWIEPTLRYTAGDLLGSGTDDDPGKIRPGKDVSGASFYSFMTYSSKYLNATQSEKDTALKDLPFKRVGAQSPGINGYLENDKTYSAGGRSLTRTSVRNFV
Kind of data set: SEC-MALS.

Data set [10] deals with the molecule itself. Kind of data set: crystal structure.
Data set [11] deals with T6, E. coli MS115-1 CdnC (purified, in complexes with HORMA) (E. coli MS115-1, UniProt D7Y2H2 1-321).
T6 sequence (looked up): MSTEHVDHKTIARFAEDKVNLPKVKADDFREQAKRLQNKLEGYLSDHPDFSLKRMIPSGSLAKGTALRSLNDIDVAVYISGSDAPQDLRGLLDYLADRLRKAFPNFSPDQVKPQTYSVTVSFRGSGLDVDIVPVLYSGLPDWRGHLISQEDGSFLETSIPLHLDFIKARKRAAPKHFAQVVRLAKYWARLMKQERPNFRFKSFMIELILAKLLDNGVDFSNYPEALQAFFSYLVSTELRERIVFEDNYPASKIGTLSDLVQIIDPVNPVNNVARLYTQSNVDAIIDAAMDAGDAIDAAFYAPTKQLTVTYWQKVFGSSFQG
Kind of data set: SEC-MALS.

For data set [12], the target named is B2. Kind of data set: crystal structure.
Data set [13] deals with the molecule itself. Kind of data set: crystal structure. The source holds these as a separate data set.
In a further data set the target is T7, Pa CdnD (Pseudomonas aeruginosa ATCC27853, UniProt P0DTF7 1-300).
T7 sequence: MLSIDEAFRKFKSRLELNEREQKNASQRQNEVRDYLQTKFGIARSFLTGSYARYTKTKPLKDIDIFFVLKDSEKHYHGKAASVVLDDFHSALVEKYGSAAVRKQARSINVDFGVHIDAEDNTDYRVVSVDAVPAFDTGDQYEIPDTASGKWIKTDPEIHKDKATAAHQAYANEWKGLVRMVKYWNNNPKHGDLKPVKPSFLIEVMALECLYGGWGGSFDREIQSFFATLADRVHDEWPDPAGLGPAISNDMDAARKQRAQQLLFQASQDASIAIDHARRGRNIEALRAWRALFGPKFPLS
Kind of data set: filter binding.

Where “and” joins values, the source holds several entries; their conditions need not be identical. Equal values may be shown once. Read-outs that look alike come from different tables or passages of the source.

With `Nc1ncnc2c1ncn2[C@@H]1O[C@H](COP(=O)(O)O)[C@@H](O)[C@H]1O` [AMP], in data set [1], the crystal structure entry is reported as “contain either no ligand or AMP in the active site”.

As to “Ec HORMA-ΔN with the His6-tag removed (from UniProt D7Y2H3 12-172) (domain or fragment)”, the stoichiometry N (HORMA-ΔN per CdnC) in [2] and in data set [3] was 1 throughout.

The molecule “Ec HORMA-ΔN with N-terminal His6-tag (from UniProt D7Y2H3 12-172) (domain or fragment)” registered a stoichiometry N (HORMA-ΔN per CdnC (2:2 complex)) in data set [4] of 1.

As for `Nc1ncnc2c1ncn2[C@@H]1O[C@H](COP(=O)(O)OP(=O)(O)OP(=O)(O)O)[C@@H](O)[C@H]1O` [ATP], the “crystal structure, 1.44 Å” value at Ec CdnC is recorded as “the active site is occupied by one molecule of ATP that was co-purified”. The “crystal structure, 2.64 Å” value on Ec CdnC:HORMA:Trip13^EQ is on record as “with four subunits (monomers A-D) bound to ATP”.

On to Rhizobiales sp. Trip13 (enzyme), for which the stoichiometry N (usually the number of molecules, sites or subunits per partner or assembly) in data set [5] was found to be 6.

B1: P. aeruginosa ATCC27853 HORMA3 (purified, in vitro reconstitution) (natural protein)
chain: MTTVVSRTFRSSPHRDALQTWDAIVELLTQGKDGTARSELRAVTGVAASLIADQAPKSAPIVATCDGPRTRIYCLFDEDAIDGDDANEEVLGFEPLKGDWGVSLPCPKEQLGWVQSALKKHSSRIIARDLSQGIATQAQADAGQALSLDLGGFLKS
B1: the “stoichiometry N” value in [6] came out at 1 HORMA3 per HORMA2; in data set [7], 1 HORMA3 per CdnD.

As for EVMEFNP [Peptide 1 (EVMEFNP), tag cleaved], the binding result in data set [8] is reported as “binds”.

As to B2, the “stoichiometry N” value in [9] was 6 Trip13^EQ per 1 CdnC:1 HORMA; in the data set “crystal structure [10]” it was 6.

B3: E. coli MS115-1 HORMA with N-terminal His6-tag (purified) (natural protein, UniProt D7Y2H3 1-172, looked up)
chain: MSSYSYTVAETQTFSVTHARHMAAKVATDLRRMQRFYGYPSDADIEAYEEELVVFLKAGYLGEVSYGFQKNNNWIEPTLRYTAGDLLGSGTDDDPGKIRPGKDVSGASFYSFMTYSSKYLNATQSEKDTALKDLPFKRVGAQSPGINGYLENDKTYSAGGRSLTRTSVRNFV
On to B3, for which, in data set [11], the “stoichiometry N” value was 1 HORMA per CdnC (1:1 complex) and 1 HORMA per CdnC (2:2 complex). The binding result in data set [12] is “binds”.

B4: P. aeruginosa ATCC27853 HORMA2 (purified alone, crystallised) (natural protein, UniProt P0DTF6 1-166, looked up)
chain: MSTVATYSYTHSVTYVTDNILKSLKDIILLSGLDPEHFADRWESNTRAIKTWLGTGDLRKVILEIYNPATDKLVTRWDIDIVYGWSDGDGSFWTDTEQLKYAIKKAGLLPSQAKYKLMLDTKPGRPDVEGWSKGSYRSTDGMVKQSLGSTVEHSGLAGQAGYWRQR
Turning to B4, in “crystal structure [13]”, the binding result is “binds”.

For the molecule B5, the “stoichiometry N” value in data set [7] is 1 HORMA2 per CdnD.

B6: 40 bp dsDNA (5'-FAM Oligo #1/Oligo #2) (dsDNA)
DNA 1: CCTTTCGAAGACTCATCACGGAGAGCAGACATCATCTGGC
DNA 2: GCCAGATGATGTCTGCTCTCCGTGATGAGTCTTCGAAAGG
Consider B6, for which the binding result in the data set with Pa CdnD is “no binding”.
